According to patent US20220363757A1 (SYMPHOGEN A S, published 2022):

T1: human LAG-3 domain 1-2 Fc fusion, point mutation #26 P79A (human, UniProt P18627 23-266)
T1 construct: not shown: human IgG1 Fc, AA P101-K330
T1 sequence: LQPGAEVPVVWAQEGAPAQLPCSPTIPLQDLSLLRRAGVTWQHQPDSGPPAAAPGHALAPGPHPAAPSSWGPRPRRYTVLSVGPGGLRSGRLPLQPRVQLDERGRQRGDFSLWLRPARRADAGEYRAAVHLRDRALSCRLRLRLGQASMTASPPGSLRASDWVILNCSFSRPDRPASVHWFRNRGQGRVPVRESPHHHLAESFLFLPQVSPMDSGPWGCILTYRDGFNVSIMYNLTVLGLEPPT

T2: human LAG-3 domain 1-2 Fc fusion, point mutation #10 S54A (human, UniProt P18627 23-266)
T2 construct: not shown: human IgG1 Fc, AA P101-K330
T2 sequence: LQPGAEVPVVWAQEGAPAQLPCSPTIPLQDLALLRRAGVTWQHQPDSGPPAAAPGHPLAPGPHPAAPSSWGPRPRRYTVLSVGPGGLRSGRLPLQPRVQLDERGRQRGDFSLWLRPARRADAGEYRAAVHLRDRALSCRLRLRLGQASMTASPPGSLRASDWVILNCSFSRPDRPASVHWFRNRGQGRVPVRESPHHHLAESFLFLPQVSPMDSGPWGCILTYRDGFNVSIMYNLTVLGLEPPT

T3: human LAG-3 domain 1-2 Fc fusion, point mutation #15 Q64A (human, UniProt P18627 23-266)
T3 construct: not shown: human IgG1 Fc, AA P101-K330
T3 sequence: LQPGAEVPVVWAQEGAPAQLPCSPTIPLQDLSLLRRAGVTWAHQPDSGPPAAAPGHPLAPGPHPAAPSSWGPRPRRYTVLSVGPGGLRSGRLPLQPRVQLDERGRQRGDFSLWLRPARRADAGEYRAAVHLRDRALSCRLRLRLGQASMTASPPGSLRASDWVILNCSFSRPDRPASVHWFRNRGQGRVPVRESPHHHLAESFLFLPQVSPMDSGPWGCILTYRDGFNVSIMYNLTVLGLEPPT

T4: human LAG-3 domain 1-2 Fc fusion, point mutation #25 H78A (human, UniProt P18627 23-266)
T4 construct: not shown: human IgG1 Fc, AA P101-K330
T4 sequence: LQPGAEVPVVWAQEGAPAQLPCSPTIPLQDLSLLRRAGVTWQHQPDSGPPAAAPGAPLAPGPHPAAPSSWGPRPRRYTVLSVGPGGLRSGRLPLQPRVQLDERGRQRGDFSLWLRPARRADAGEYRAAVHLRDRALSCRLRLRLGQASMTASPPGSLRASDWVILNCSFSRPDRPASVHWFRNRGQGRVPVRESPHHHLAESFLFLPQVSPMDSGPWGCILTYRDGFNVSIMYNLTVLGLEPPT

T5: human LAG-3 domain 1-2 Fc fusion, point mutation #19 D68A (human, UniProt P18627 23-266)
T5 construct: not shown: human IgG1 Fc, AA P101-K330
T5 sequence: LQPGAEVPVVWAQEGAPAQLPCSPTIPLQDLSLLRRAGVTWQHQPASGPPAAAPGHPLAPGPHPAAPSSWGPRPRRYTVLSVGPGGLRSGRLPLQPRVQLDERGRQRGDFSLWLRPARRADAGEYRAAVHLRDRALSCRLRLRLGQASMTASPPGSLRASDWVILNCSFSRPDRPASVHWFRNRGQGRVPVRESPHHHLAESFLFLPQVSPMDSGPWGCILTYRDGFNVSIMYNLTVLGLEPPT

T6: human LAG-3 domain 1-2 Fc fusion, point mutation #22 A75S (human, UniProt P18627 23-266)
T6 construct: not shown: human IgG1 Fc, AA P101-K330
T6 sequence: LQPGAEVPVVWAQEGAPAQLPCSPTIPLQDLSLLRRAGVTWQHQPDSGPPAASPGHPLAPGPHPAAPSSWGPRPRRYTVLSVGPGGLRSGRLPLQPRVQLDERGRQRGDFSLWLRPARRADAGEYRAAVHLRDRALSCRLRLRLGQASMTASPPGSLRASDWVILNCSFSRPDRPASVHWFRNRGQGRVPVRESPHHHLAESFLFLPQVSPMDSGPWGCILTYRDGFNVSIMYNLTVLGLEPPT

T7: human LAG-3 domain 1-2 Fc fusion, point mutation #55 S111A (human, UniProt P18627 23-266)
T7 construct: not shown: human IgG1 Fc, AA P101-K330
T7 sequence: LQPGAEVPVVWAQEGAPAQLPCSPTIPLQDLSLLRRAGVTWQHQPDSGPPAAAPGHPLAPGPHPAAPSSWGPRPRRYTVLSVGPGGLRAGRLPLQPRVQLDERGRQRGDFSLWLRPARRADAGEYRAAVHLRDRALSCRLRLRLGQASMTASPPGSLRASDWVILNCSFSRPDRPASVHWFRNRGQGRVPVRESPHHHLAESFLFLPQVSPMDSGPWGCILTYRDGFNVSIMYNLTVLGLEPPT

T8: human LAG-3 domain 1-2 Fc fusion, point mutation #60 P118A (human, UniProt P18627 23-266)
T8 construct: not shown: human IgG1 Fc, AA P101-K330
T8 sequence: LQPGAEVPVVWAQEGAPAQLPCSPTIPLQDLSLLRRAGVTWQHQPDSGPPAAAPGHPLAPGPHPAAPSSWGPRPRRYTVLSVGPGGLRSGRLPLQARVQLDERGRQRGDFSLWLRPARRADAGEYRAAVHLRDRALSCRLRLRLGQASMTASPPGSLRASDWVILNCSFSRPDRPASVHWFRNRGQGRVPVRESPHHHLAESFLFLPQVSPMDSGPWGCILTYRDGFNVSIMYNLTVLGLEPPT

T9: human LAG-3 domain 1-2 Fc fusion, point mutation #27 L80A (human, UniProt P18627 23-266)
T9 construct: not shown: human IgG1 Fc, AA P101-K330
T9 sequence: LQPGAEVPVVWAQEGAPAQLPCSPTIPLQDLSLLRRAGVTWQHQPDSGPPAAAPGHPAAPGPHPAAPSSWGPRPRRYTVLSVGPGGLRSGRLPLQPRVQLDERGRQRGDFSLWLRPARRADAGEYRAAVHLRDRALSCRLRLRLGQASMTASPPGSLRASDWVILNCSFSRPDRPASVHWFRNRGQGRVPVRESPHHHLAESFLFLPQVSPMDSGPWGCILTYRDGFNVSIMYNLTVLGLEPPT

B1: Fab fragment of antibody 15532 (Fab, V domains shown, not shown: a dimerising Fc or GST)
VH: QVQLQQWGAGLLRPSETLSLTCAVYGESFSGYYWNWIRQPPGKGLEWIGEINHSGSTNYNPSLKSRVTISVDTSKTQFSLKLSSVTAADTAVYYCARGWDLLDWNDYWNEYWGQGTLVTVSS
VL: EIVLTQSPATLSLSPGERATLSCRASQSVSSYLAWYQQKPGQAPRLLIYDASNRATGIPARFSGSGSGTDFTLTISSLEPEDFAVYYCQQRSNWPLTFGGGTKVEIKR
notes: monomeric Fab made by GingisKHAN digestion of the IgG1
B2: Fab fragment of antibody 15431 (Fab, V domains shown, not shown: a dimerising Fc or GST)
VH: QVQLQQSGPGLVKPSQTLSLTCAISGDSVSSNSAAWNWIRQSPSRGLEWLGRTYYRSKWYNDYAVSVKSRITINPDTSKNQFSLQLNSVTPEDTAVYYCARDDDWNDFDYWGQGTLVTVSS
VL: EIVLTQSPATLSLSPGERATLSCRASQSVSSYLAWYQQKPGQAPRLLIYDASNRATGIPARFSGSGSGTDFTLTISSLEPEDFAVYYCQQRSNWPLTFGGGTKVEIKR
notes: as for B1
B3: Fab fragment of antibody 15011 (Fab, V domains shown, not shown: a dimerising Fc or GST)
VH: EVQLLESGGGLVQPGGSLRLSCAASGFDFRSYAMMWVRQAPGKGLEWVGGINGEVGGSNTYYAPAVKGRATISRDNSKNTLYLQMNSLRAEDTAVYYCVKGAGACGICNDDIDAWGQGTLVTVSS
VL: SYELTQDPAVSVALGQTVRITCSGAGSYAGSYYYGWHQQKPGQAPVTVIYDNDKRPSNIPDRFSGSSSGNTASLTITGAQAEDEADYYCGSTNDNDDGGLFGSGTKVTVLG
notes: as for B1
B4: Fab fragment of antibody 15572 (Fab, V domains shown, not shown: a dimerising Fc or GST)
VH: QLQLQESGPGLVKPSETLSLTCTVSGDSISSSSYYWGWIRQPPGKGLEWIGSIFYSGNTYYNPSLKSRVTISVDTSKNQFSLKLSSVTAADTAVYYCAREDDFLTDYYGAFDIWGQGTMVTVSS
VL: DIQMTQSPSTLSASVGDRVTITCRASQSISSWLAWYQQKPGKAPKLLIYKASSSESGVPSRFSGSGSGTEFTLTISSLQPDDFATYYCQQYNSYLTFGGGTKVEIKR
notes: as for B1

What was measured:
Assay in all cases: SPR, Fab over captured mutant LAG-3-Fc;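 note: fc fusion variants captured on anti-human IgG Fc sensor, Fab injected with association then dissociation phases, KD obtained from Langmuir one-to-one fit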
[1] = biological target: T1, human LAG-3 domain 1-2 Fc fusion, point …
[2] = biological target: T2, human LAG-3 domain 1-2 Fc fusion, point …
[3] = biological target: T3, human LAG-3 domain 1-2 Fc fusion, point …
[4] = biological target: T4, human LAG-3 domain 1-2 Fc fusion, point …
[5] = biological target: T5, human LAG-3 domain 1-2 Fc fusion, point …
[6] = biological target: T6, human LAG-3 domain 1-2 Fc fusion, point …
[7] = biological target: T7, human LAG-3 domain 1-2 Fc fusion, point …
[8] = biological target: T8, human LAG-3 domain 1-2 Fc fusion, point …
[9] = biological target: T9, human LAG-3 domain 1-2 Fc fusion, point …

Row | Binder | KD mutant/KD wild type [1] | KD mutant/KD wild type [2] | KD mutant/KD wild type [3] | KD mutant/KD wild type [4] | KD mutant/KD wild type [5] | KD mutant/KD wild type [6] | KD mutant/KD wild type [7] | KD mutant/KD wild type [8] | KD mutant/KD wild type [9] | binding result [3] | binding result [5]
1 | B1 | 0.9 fold | 0.7 fold | 2.9 fold | 0.9 fold | 3.4 fold | 0.9 fold | 1 fold | 0.7 fold | 0.6 fold | – | –
2 | B2 | 0.4 fold | 0.5 fold | – | 0.4 fold | – | 0.8 fold | 0.8 fold | 1 fold | 0.5 fold | no binding (tested: 300 nM) | no binding (tested: 300 nM)
3 | B3 | 0.6 fold | 0.8 fold | 0.6 fold | 0.7 fold | 0.6 fold | 0.8 fold | 53.4 fold | 1.2 fold | 0.8 fold | – | –
4 | B4 | 0.4 fold | 0.7 fold | – | 0.5 fold | – | 0.7 fold | 0.7 fold | 0.9 fold | 0.6 fold | no binding (tested: 300 nM) | no binding (tested: 300 nM)
